Source: patent publication US20220185874A1 (ROCHE DIAGNOSTICS OPERATIONS, published 2022)
Positions count from the first letter of the chain named. Numbers in names are those of the source.

B1: mAb<TnT>rM-11-7(A102W)-Fab(IgG1)-Qtag-Bi (Fab, V domains shown)
VH: QIQLVQSGPELKKPGETVKISCKASGYTFTDFSMHWVKQAPGKGLKWMGWINTETGEPTYADDFKGRFAFSLETSATTAYLQINNLKNEDTATYFCVRSHWMDYWGQGTSVTVSS
VL: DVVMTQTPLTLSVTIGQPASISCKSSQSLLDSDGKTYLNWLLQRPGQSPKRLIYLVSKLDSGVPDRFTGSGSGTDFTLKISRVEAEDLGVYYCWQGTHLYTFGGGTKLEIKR
notes: Murine Fab (IgG1) with a Qtag, produced in HEK FreeStyle 293-F cells, site-directed conjugated to biotin with Kutzneria albida transglutaminase; also called maturated biotinylated mAb<TnT>rM-11-7(A102W)-Fab
B2: mAb<TnT>rM-11-7 Fab A102D (Fab, V domains shown)
VH: B1 VH with W101D
VL: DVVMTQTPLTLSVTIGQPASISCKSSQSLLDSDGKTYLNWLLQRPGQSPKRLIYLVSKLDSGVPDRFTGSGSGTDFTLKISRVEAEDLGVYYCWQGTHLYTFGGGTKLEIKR
notes: Murine CH1 and CL, E. coli periplasmic lysate
B3: mAb<TnT>rM-11-7 Fab A102E (Fab, V domains shown)
VH: B1 VH with W101E
VL: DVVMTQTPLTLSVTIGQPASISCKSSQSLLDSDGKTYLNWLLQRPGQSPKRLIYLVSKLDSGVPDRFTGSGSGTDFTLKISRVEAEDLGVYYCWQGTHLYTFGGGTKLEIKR
notes: as for B2
B4: mAb<TnT>rM-11-7 Fab A102F (Fab, V domains shown)
VH: B1 VH with W101F
VL: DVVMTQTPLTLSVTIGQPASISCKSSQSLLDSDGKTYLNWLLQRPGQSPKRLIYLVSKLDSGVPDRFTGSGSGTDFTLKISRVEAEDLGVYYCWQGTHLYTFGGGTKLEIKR
notes: as for B2
B5: mAb<TnT>rM-11-7 Fab A102H (Fab, V domains shown)
VH: B1 VH with W101H
VL: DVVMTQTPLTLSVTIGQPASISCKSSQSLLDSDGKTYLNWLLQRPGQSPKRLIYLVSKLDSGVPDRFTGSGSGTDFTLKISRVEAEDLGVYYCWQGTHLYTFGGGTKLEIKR
notes: as for B2
B6: mAb<TnT>rM-11-7 Fab A102I (Fab, V domains shown)
VH: B1 VH with W101I
VL: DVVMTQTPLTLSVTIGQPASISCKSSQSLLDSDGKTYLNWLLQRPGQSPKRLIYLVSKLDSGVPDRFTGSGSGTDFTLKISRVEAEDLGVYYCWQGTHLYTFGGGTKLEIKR
notes: as for B2
B7: mAb<TnT>rM-11-7 Fab A102L (Fab, V domains shown)
VH: B1 VH with W101L
VL: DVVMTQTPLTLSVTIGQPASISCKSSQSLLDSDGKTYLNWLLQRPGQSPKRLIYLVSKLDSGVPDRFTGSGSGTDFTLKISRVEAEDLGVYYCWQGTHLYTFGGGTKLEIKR
notes: as for B2
B8: mAb<TnT>rM-11-7 Fab A102N (Fab, V domains shown)
VH: B1 VH with W101N
VL: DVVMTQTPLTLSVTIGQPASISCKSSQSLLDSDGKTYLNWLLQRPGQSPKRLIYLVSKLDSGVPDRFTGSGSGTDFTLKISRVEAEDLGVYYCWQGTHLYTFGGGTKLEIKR
notes: as for B2
B9: mAb<TnT>rM-11-7 Fab A102R (Fab, V domains shown)
VH: B1 VH with W101R
VL: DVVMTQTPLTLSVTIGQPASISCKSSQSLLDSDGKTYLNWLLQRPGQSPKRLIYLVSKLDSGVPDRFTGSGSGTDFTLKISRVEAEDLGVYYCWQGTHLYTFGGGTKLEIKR
notes: as for B2
B10: mAb<TnT>rM-11-7 Fab A102W (Fab, V domains shown)
VH: B1 VH
VL: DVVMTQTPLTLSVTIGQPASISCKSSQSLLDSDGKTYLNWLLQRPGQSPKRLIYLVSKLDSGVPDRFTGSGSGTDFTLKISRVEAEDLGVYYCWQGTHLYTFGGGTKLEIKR
notes: as for B2
B11: mAb<TnT>rM-11-7 Fab A102Y (Fab, V domains shown)
VH: B1 VH with W101Y
VL: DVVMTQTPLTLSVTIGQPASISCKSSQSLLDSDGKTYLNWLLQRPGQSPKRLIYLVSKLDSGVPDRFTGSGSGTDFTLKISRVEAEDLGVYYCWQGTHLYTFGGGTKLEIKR
notes: as for B2

target: T1, human cardiac troponin T (human, UniProt P45379 2-298); assay: Elecsys ECL sandwich immunoassay, biotinylated Fab as capture reagent R1, ruthenylated commercial detection antibody; reference: biotinylated wild type Fab of MAB11-7
T1 construct: Analyte in SPR was 'Recombinant human TnT (Roche, 37 kDa)'; also called cTnT; TnT
Protocol: (§1) The antibody Fab fragment mAb<TnT>rM-11-7(A102W)-Fab(IgG1)-Qtag was produced as a biotinylated Fab fragment, i.e., mAb<TnT>rM-11-7(A102W)-Fab(IgG1)-Qtag-Bi according to Example 7 and was tested in a sandwich immuno assay (see FIG. 6). The Fab fragment mAb<TnT>rM-11-7(A102W)-Fab(IgG1)-Qtag-Bi was compared to the biotinylated wild type Fab-fragment of MAB11-7 (i.e. comprising a CDR3 of SEQ ID NO: 16) as comprised in the commercially available Roche Elecsys® assay, catalogue number 05092744190 (Roche Diagnostics GmbH, Mannheim, Germany). These biotinylated reagents were used as reagent 1 (RI) in the corresponding assay protocol. The ruthenylated detection antibody was the one comprised in the Roche Elecsys® assay, catalogue number 05092744190 (Roche Diagnostics GmbH, Mannheim, Germany). The ruthenylated detection antibody corresponds to the Elecsys® R2 reagent.
Measurements were performed on a Cobas E170 Module using the Troponin T hs assay protocol with a blank control (Diluent Universal, Id. 11732277122, Diluent Multi Assay, Id. 03609987170, Roche Diagnostics GmbH, Mannheim, Germany), Call and Cal2 from Troponin T hs CalSet (Id. 05092752190, Roche Diagnostics GmbH, Mannheim, Germany) using the Troponin T hs assay specifications. […]

| Binder | fold increase in sensitivity (signal to noise) against parental |
| --- | --- |
| B1 | ~2 fold |

target: T1, human cardiac troponin T; assay: Elecsys ECL sandwich immunoassay, calibrator Cal1 (recTnT), reference: biotinylated wild type Fab of MAB11-7
Protocol: as §1
(§2) The assay follows assay protocol 2 of the cobas e analyzers, where sample, R1 and R2 are mixed in a first step for 9 min incubation, then the streptavidin coated magnetic beads are added in a second step for another 9 min incubation. […]
(§3) Elecsys® streptavidin-coated magnetic beads were always used in combination with one of the RI and R2 reagent bottles. Samples measured included sample diluent (Diluent Universal=buffer blank,) and the TnT Elecsys® assay commercial calibrators (Call ([…] recTnT) and Cal2 ([…] recTnT)).

| Binder | fold increase of Cal-1 signal against parental |
| --- | --- |
| B1 | 1.7 fold |

target: T1, human cardiac troponin T; assay: SPR (Biacore 8K), 37 C, Fab captured from E. coli lysate by anti-mouse F(ab')2, recombinant human TnT as analyte
Protocol: Detailed kinetic investigations were performed at 37° C. on a GE Healthcare 8k instrument. A Biacore CM-5 series S sensor was mounted into the instrument and was preconditioned according to the manufacturer's instructions. The system buffer was HBS-ET (10 mM HEPES (pH 7.4), 150 mM NaCl, 1 mM EDTA, 0.05% (w/v) Tween® 20). The sample buffer was the system buffer supplemented with 1 mg/ml CMD (Carboxymethyldextran, Fluka). In one embodiment an anti-murine Fab fragment capture system was established on the CM5 biosensor. The rabbit polyclonal pAb anti M-IgG, F(ab′)₂ fragment (Cat. No. 315-005-047, Jackson Immuno Research) was immobilized according to the manufacturer's instructions using NHS/EDC chemistry. At 5 μl/min, 30 μg/ml RAMF(ab′)₂ in 10 mM sodium acetate buffer (pH 5.0) were immobilized at 10.000 RU on each flow cell. The sensor was subsequently saturated with 1 M ethanolamine pH 8.5. […] Recombinant human TnT (Roche, 37 kDa) was diluted in sample buffer at 30 nM and a concentration series was produced with 0 nM, 30 nM, 10 nM, 3.3 nM, 1.1 nM, 0.37 nM TnT concentration. The analyte concentration series were injected at 80 μl/min for 3 min association phase and the dissociation phase was monitored for 5 min. At the end of the analyte association phase a report point, “binding late” (BL) in response units (RU) was monitored. After each cycle of kinetic rates determination, the capture system was regenerated by a 15 seconds injection of 10-fold concentrated HBS-EP buffer followed by two 1 min injections of 100 mM HCl at 20 μl/min.

| Binder | Kd | koff | kon | t½ [min] (complex half-life) |
| --- | --- | --- | --- | --- |
| B2 | 15 nM | 0.029 s⁻¹ | 1.9e+06 M⁻¹ s⁻¹ | 0.4 min |
| B3 | 9 nM | 0.0098 s⁻¹ | 1.1e+06 M⁻¹ s⁻¹ | 1 min |
| B4 | 1 nM | 0.0012 s⁻¹ | 900000 M⁻¹ s⁻¹ | 10 min |
| B5 | 8 nM | 0.0069 s⁻¹ | 830000 M⁻¹ s⁻¹ | 2 min |
| B6 | 18 nM | 0.032 s⁻¹ | 1.7e+06 M⁻¹ s⁻¹ | 0.4 min |
| B7 | 13 nM | 0.009 s⁻¹ | 710000 M⁻¹ s⁻¹ | 1 min |
| B8 | 17 nM | 0.056 s⁻¹ | 3.3e+06 M⁻¹ s⁻¹ | 0.2 min |
| B9 | 2500 nM | 0.042 s⁻¹ | 16000 M⁻¹ s⁻¹ | 0.3 min |
| B10 | < 0.01 nM | < 1e-05 s⁻¹ | 1.1e+06 M⁻¹ s⁻¹ | > 1160 min |
| B11 | 5 nM | 0.0033 s⁻¹ | 710000 M⁻¹ s⁻¹ | 3 min |

target: T1, human cardiac troponin T; assay: Elecsys ECL sandwich immunoassay, calibrator Cal2 (recTnT), reference: biotinylated wild type Fab of MAB11-7
Protocol: as §1, §2, §3

| Binder | fold increase of Cal-2 signal against parental |
| --- | --- |
| B1 | 1.8 fold |
